Values of other authors, collected in publication PMC3273586 (International Journal of Pharmaceutics, 2011).

Conditions: solution stored for 20 h at room temperature; ref Dijkhuizen-Radersma et al., 2002

Which “aggregation of solution on storage” value does the source give for calcitonin here?
The value was “early onset of aggregation”.
